According to paper PMC10397247:
Blank lines part the entries; values can stand above or below the binder they belong to.

How the values were obtained:
4H906-bN = target: T1, 4H906-bN; test: two-hybrid library CCNG1;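 note: natural log of median RNA to DNA barcode read ratio; higher means stronger binding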
T1 chain: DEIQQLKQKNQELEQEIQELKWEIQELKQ

4H626-bN = target: T2, 4H626-bN; test: two-hybrid library CCNG1;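 note: natural log of median RNA to DNA barcode read ratio; higher means stronger binding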
T2 chain: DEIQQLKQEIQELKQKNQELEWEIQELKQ

4H683-bN = target: T3, 4H683-bN; test: two-hybrid library CCNG1;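 note: natural log of median RNA to DNA barcode read ratio; higher means stronger binding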
T3 chain: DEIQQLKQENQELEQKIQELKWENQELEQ

4H780-bN = target: T4, 4H780-bN; test: two-hybrid library CCNG1;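 note: natural log of median RNA to DNA barcode read ratio; higher means stronger binding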
T4 chain: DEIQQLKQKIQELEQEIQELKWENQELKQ

4H953-bN = target: T5, 4H953-bN; test: two-hybrid library CCNG1;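 note: natural log of median RNA to DNA barcode read ratio; higher means stronger binding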
T5 chain: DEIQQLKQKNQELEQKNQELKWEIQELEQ

4H797-bN = target: T6, 4H797-bN; test: two-hybrid library CCNG1;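 note: natural log of median RNA to DNA barcode read ratio; higher means stronger binding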
T6 chain: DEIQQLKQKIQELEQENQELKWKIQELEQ

4H968-bN = target: T7, 4H968-bN; test: two-hybrid library CCNG1
T7 chain: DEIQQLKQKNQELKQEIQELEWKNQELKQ

4H575-bN = target: T8, 4H575-bN; test: two-hybrid library CCNG1
T8 chain: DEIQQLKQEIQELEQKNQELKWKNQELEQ

4H918-bN = target: T9, 4H918-bN; test: two-hybrid library CCNG1
T9 chain: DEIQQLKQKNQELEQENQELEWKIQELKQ

4H855-bN = target: T10, 4H855-bN; test: two-hybrid library CCNG1
T10 chain: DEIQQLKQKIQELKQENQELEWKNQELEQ

4H754-bN = target: T11, 4H754-bN; test: two-hybrid library CCNG1
T11 chain: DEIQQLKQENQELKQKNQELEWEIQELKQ

4H_BCR = target: T12, 4H_BCR; test: two-hybrid library CCmax; conditions: mean of both orientations
T12 chain: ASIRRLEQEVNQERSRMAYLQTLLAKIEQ

4H895-AA = target: T13, 4H895-AA; test: two-hybrid library CCmax; conditions: mean of both orientations
T13 chain: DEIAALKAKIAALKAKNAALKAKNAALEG

GCN2_T = test: two-hybrid library CCmax
4H535-AA = target: T14, 4H535-AA; test: two-hybrid library CCmax
T14 chain: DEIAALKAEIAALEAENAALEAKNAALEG

4H58-AA = target: T15, 4H58-AA; test: two-hybrid library CCmax; conditions: mean of both orientations
T15 chain: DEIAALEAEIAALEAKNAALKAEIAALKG

4H_GCN4 = test: two-hybrid library CCmax
Chain of 4H_GCN4 (chain, as listed by the source): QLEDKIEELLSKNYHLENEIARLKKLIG

4H_APH = target: T16, 4H_APH; test: two-hybrid library CCmax
T16 chain: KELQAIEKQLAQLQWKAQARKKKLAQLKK

4H953-bH = target: T17, 4H953-bH; test: two-hybrid library CCNG1
T17 chain: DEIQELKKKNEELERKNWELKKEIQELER

4H568-bH = target: T18, 4H568-bH; test: two-hybrid library CCNG1
T18 chain: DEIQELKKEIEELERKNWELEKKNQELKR

4H883-bH = target: T19, 4H883-bH; test: two-hybrid library CCNG1
T19 chain: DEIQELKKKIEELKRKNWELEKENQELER

4H4001-bH = target: T20, 4H4001-bH; test: two-hybrid library CCNG1
T20 chain: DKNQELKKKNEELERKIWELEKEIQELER

O8-bA = target: T21, O8-bA; test: two-hybrid library CCNG1
T21 chain: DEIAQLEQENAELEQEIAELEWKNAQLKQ

4H918-bH = target: T22, 4H918-bH; test: two-hybrid library CCNG1
T22 chain: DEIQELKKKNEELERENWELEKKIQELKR

4H3855-bH = target: T23, 4H3855-bH; test: two-hybrid library CCNG1
T23 chain: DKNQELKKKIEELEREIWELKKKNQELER

4H72-bH = target: T24, 4H72-bH; test: two-hybrid library CCNG1
T24 chain: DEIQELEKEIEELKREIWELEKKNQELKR

4H967-bH = target: T25, 4H967-bH; test: two-hybrid library CCNG1
T25 chain: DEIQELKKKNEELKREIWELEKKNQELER

4H687-bH = target: T26, 4H687-bH; test: two-hybrid library CCNG1
T26 chain: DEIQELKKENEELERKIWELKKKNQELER

4H908-bH = target: T27, 4H908-bH; test: two-hybrid library CCNG1
T27 chain: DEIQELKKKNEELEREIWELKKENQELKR

4H797-bH = target: T28, 4H797-bH; test: two-hybrid library CCNG1
T28 chain: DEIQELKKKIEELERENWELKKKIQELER

4H717-bH = target: T29, 4H717-bH; test: two-hybrid library CCNG1
T29 chain: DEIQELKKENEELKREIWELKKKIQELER

4H454-bH = target: T30, 4H454-bH; test: two-hybrid library CCNG1
T30 chain: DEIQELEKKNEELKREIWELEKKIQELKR

4H607-bH = target: T31, 4H607-bH; test: two-hybrid library CCNG1
T31 chain: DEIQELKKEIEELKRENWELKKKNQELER

4H906-bA = target: T32, 4H906-bA; test: two-hybrid library CCNG1
T32 chain: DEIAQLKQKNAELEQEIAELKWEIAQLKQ

4H619-bA = target: T33, 4H619-bA; test: two-hybrid library CCNG1
T33 chain: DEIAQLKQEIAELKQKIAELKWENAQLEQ

4H850-bA = target: T34, 4H850-bA; test: two-hybrid library CCNG1
T34 chain: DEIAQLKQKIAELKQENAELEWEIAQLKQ

interaction score (4H906-bN): -0.523
interaction score (4H626-bN): 0.832
B1: 4H626-bN (peptide)
chain: DEIQQLKQEIQELKQKNQELEWEIQELKQ

interaction score (4H953-bH): -0.861
interaction score (4H568-bH): -2.56
interaction score (4H883-bH): 0.413
interaction score (4H4001-bH): 1.02
interaction score (O8-bA): -2.06
interaction score (4H918-bH): -0.471
interaction score (4H3855-bH): -1.88
interaction score (4H72-bH): -1.07
interaction score (4H967-bH): -0.847
interaction score (4H687-bH): -0.688
interaction score (4H908-bH): -1.26
interaction score (4H797-bH): -0.875
interaction score (4H717-bH): -0.607
interaction score (4H454-bH): 0.744
interaction score (4H607-bH): -1.71
B4: 4H3855-bH (peptide)
chain: DKNQELKKKIEELEREIWELKKKNQELER

The next lines start with the binder.

B2: 4H575-bN (peptide)
chain: DEIQQLKQEIQELEQKNQELKWKNQELEQ
interaction score (4H683-bN): 0.443
interaction score (4H780-bN): -0.38
interaction score (4H953-bN): 0.476
interaction score (4H797-bN): -1.51
interaction score (4H968-bN): -0.976
interaction score (4H575-bN): -0.842
interaction score (4H918-bN): 0.56
interaction score (4H855-bN): 0.475
interaction score (4H754-bN): -2.08

B3: 4H535-AA (peptide)
chain: DEIAALKAEIAALEAENAALEAKNAALEG
interaction score (4H_BCR): -1.23
interaction score (4H895-AA): 2.1
interaction score (GCN2_T): -2.47
interaction score (4H535-AA): -0.291
interaction score (4H58-AA): -0.661
interaction score (4H_GCN4): -1.41
interaction score (4H_APH): -1.48

B5: 4H619-bA (peptide)
chain: DEIAQLKQEIAELKQKIAELKWENAQLEQ
interaction score (4H906-bA): -1.09
interaction score (4H619-bA): -0.211
interaction score (4H850-bA): -0.446
